The supplement of paper PMC10567573

B1: KRT13 (parent)
chain: YGGGLGGGFGGGFAGGFVDFGACD
B2: RSAD1 (parent)
chain: YCNFNKYIPRRLEEAAMQKCLVTE

Variants of: B1
Test: protein stability index of a GFP-peptide fusion (GPS, HEK-293T) (PSI 1-6); higher = more stable
Conditions: c terminus: a fixed tail appended
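Further: lentivirally expressed fusions sorted by FACS into six bins by GFP to DsRed ratio, PSI derived from sequencing read proportions per bin multiplied by bin number.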

Protein stability index of substitutions, site by site:
Y1: M 2.43; W 2.08; S 3.23; G 3.48; D 3.61; R 2.76; N 3.65; F 1.16; E 3.3; L 1.92; P 2.75; K 2.68; V 3.53; H 2.9; T 2.73; C 1.52; A 2.87; Q 3.12; I 2.54
G4: I 1.93; K 2.84; T 1.87; A 1.89; L 2.14; R 2.02; M 1.21; P 2.03; W 2.33; D 2.52; H 1.6; F 1.7; S 2.42; V 1.55; N 1.8; Y 2.38; Q 1.68; E 1.95
G3: C 1.87; V 2.48; A 1.77; H 1.9; Y 1.21; I 2.29; W 1.18; D 1.5; L 1.58; N 2.2; T 2.3; P 2.03; M 2.51; Q 2.5; F 1.88; S 1.84; R 2.27; E 2.33
L5: D 2.04; A 1.64; T 2.22; R 2.62; N 1.84; F 1.38; E 2.51; H 1.8; V 2.73; M 1.93; I 2.27; Q 2.02; G 1.87; C 1; S 1.36; K 1.51; P 1.95; W 3.09
G2: D 2.67; L 3.13; R 2.33; Y 1.63; F 2.91; V 3.25; W 2.56; I 3.26; N 2.23; E 2.66; S 1.54; K 1.86

Variants of: B2
Test: as above
Conditions: c terminus: a fixed tail appended

Protein stability index of substitutions, site by site:
M17: D 3.71; A 1.98; F 1.67; I 2.82; P 1.92; H 3.23; N 2.11; R 1.71; W 2.1; C 1.72; T 3.45; K 2.85; Y 2.85; G 1.99; E 2.44; Q 2.57; L 1.96; V 2
A16: S 2.56; V 2.98; K 3.53; W 1.79; Q 2.23; H 3.97; D 2.54; F 1.74; C 3.34; M 1.57; T 2.39; Y 2.16; R 2.39; I 3.03; N 3.66; L 1.41
E24: T 1.44; N 2.17; W 2.13; H 2.08; L 3.31; I 2.83; P 2.28; C 3.44; V 1.9; S 1.64; G 2.29; R 2.32; D 2.4; F 2.77; K 2.46; A 3.14; M 2.84; Y 2.16; Q 2.38
R10: T 1.59; Y 2.26; W 3.64
E13: I 1.66; Y 1.88; K 1.82; F 2.34; C 1.99; S 1.46; L 2.16; N 3.29; R 2.19; M 2.56; G 2.11; P 3.17; A 2.63; Q 1.93; T 2.55; W 2.49; H 3.29; D 3.69
L12: P 2.95; H 2.52; T 2; Q 4; S 2.45; G 2.96; I 2.98; E 2.46; M 2.83; W 4.96; V 2.74; Y 3.24; D 2.19; K 2.42; N 3.28; F 2.15; R 2.41; C 1.96
L21: F 2.97; H 2.69; P 2.17; N 2.19; D 2.17; S 1.42; I 1.79; K 2.67; R 1.51; M 1.42; T 2.04; E 2.41; G 2.03; V 2.01; C 2.15; Q 3.19; A 2.09; Y 3.19
T23: E 1.94; Y 2.61; N 2.85; W 2.85; M 2.17; I 2.22; H 2.92; R 1.78; F 3; L 1.91; S 1.93; P 3.87; V 3.13; D 1.78; K 2.27; Q 3.64; A 1.9
K19: H 1.7; L 3.06; Q 2.96; S 2.41; P 2.76; N 2.37; G 2.12; W 2.37; I 2.25; C 2.08; Y 2.31; T 2.01; M 4.09; D 1.68; E 2.71; V 1.48
V22: G 2.02; I 2.77; C 2.58; M 2.58; Q 2.5; E 2.41; A 2.25; L 1.3; Y 1.41; W 2.23; N 2.35; P 1.97; R 3.88; S 2.38; K 2.57; H 2.78; T 3.32; D 1.76
C20: L 2.91; S 2.1; N 2.44; F 2.7; I 3.05; Y 4.07; W 2.77; V 1.89; P 1.95; T 1.89; M 2.27; H 2.31; Q 2; K 2.11; A 2.87; E 2.02; R 2.55; D 2.56; G 2.9
E14: I 2.32; Y 1.33; W 1.96; V 3.05; D 2.71; F 2.31; S 2.5; G 3; Q 2.85; R 2.33; T 2.09; A 3.07; N 3.14; P 2.92; L 2.34; H 1.65; C 2.27; K 1.58; M 3.14
R11: Q 1.67; N 1.61; K 2.14; A 3.42; W 2.73; H 2.96; G 2.64; C 2.17; Y 1.48; E 2.17; I 3.24; D 1.84; S 1.44; F 3.01; V 2.41; L 2.57; T 1.95
A15: L 2.23; T 3.34; E 1.84; K 1.69; Y 2.61; D 2.55; P 2.85; H 3.35; I 1.56; Q 2.24; M 2.14; N 2.09; F 2.02; W 1.04; V 3.4; C 1.83
Q18: N 3.44; R 2.03; M 3.17; S 2.02; F 2.34; Y 2.88; G 1.76; K 2.15; H 1.88; T 1.89; D 1.84; I 2.76; V 3.15; A 1.75; C 2.41; P 1.96; L 1.71
